For the experiment, the target named is T1, CA125抗原 (purified from ascites of ovarian cancer patients) (human (ascites of ovarian cancer …, UniProt Q8WXI7 1-14451)).
T1 construct: Natural shed antigen, heterogeneous fragments; also called CA125糖类抗原
Kind of experiment: SPR, Biacore T100, 1:1 binding fit. Background: SPR reads the build-up and loss of mass on a sensor chip optically.

The values that follow come from patent CN108178799A (SHENZHEN INNOVA NANOBODI CO LTD, dated 2018).

For orientation: Kd means the concentration at which binding is half-saturated. A lower Kd goes with a tighter complex.

B1: 纳米抗体VHH-CA125-2H7 (VHH)
VHH: ESGGGLVQAGGSLRLSCERSDAPHSPYTMGWFRQAPGKDREFVATITWSGGTTLYADSVKGRFTISRGIAKNTAYLQMNTLKPEDTAVYYCAVGLGGGAYREDHQYDYWGQGT
notes: Alpaca VHH expressed from pMES4 in E. coli BL21(DE3) periplasm; not shown: residues and tag from the pMES4 vector (protein purified on Ni-NTA / IMAC)
B1: the Kd was 0.718 nM.

B2: 纳米抗体VHH-CA125-4H10 (VHH)
VHH: ESGGGLVQPGGSLRLSCAASEFTLEHYAIGWFRQAPGKEREGVGCISSSQENTYVEDSAKGRFTISRDNVKNTVYLQMNSLKPEDTAVYYCAARRFGLCVISPGYFEVWGQGT
notes: as for B1
In turn, B2 returned a dissociation constant (Kd) of 0.285 nM.

B3: 纳米抗体VHH-CA125-4C1 (VHH)
VHH: ESGGGLVQAGGSLRLSCAASGNTFNINAMGWYRQAPGKQRELVATITSGGSTNYADSVKGRFTISRDNAKNTVFLQMNSLKPEDTAVYYCNAVQTRLPNSPDRYEYDYWGQGT
notes: as for B1
The molecule B3 yielded a Kd of 0.635 nM.
